In patent US20130005646A1 (Novo Nordisk, published 2013):
Starred links: 1 amine or outer side, 2 acyl side, 3 side chain; linkers in the order of their positions; H or OH if unused. Positions of bridges follow the written chain, without caps; N, C: chain ends. *: point of attachment. C20 diacid = O=C(O)CCCCCCCCCCCCCCCCCCC(=O)*; 19‑carboxyheptadecanoyl = not defined here; C18 diacid = O=C(O)CCCCCCCCCCCCCCCCC(=O)*; γGlu = O=C(O)[C@H](CCC(=O)[*:2])N[*:1]; AEEA = NCCOCCOCC(=O)O

T1: human amylin 3(a) receptor (human calcitonin receptor + RAMP-3) (human, UniProt P30988 25-474; O60896 24-148)
T1 sequence (looked up) 1: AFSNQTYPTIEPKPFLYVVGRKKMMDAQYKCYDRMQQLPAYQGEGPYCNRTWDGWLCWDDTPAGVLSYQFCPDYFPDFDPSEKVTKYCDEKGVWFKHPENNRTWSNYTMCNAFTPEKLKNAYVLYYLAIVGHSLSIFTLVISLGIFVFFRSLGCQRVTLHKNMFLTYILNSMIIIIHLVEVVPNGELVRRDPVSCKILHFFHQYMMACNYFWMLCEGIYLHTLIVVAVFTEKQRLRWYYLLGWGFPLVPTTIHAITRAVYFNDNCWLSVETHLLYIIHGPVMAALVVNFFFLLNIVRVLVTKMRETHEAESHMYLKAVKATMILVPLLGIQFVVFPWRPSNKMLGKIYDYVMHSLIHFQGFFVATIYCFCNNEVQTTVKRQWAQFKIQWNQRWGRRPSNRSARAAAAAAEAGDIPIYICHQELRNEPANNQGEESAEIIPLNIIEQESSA
T1 sequence (looked up) 2: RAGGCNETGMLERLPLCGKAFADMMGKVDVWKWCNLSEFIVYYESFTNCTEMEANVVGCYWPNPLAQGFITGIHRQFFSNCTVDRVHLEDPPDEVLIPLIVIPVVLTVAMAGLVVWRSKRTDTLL

T2: human calcitonin (a) receptor (human, UniProt P30988 25-474)
T2 sequence (looked up): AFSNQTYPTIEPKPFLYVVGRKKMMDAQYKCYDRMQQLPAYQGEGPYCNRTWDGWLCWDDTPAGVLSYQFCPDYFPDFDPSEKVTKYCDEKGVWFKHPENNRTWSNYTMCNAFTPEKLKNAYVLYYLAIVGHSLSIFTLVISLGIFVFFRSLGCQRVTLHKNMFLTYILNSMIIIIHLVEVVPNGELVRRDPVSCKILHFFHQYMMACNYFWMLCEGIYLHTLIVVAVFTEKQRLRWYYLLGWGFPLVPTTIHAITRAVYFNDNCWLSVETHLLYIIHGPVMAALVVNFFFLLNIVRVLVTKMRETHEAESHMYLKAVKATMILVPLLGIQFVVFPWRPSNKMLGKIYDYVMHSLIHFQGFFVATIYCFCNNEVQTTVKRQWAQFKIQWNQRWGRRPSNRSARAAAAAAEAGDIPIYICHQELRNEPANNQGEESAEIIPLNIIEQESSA


What was measured:
[1] = target: T1, human amylin 3(a) receptor (human …); assay: cell-based or functional assay
[2] = target: T2, human calcitonin (a) receptor; assay: cell-based or functional assay

Binder | Amylin receptor human EC50 [1] [nM] | CTa receptor human EC50 [2] [nM]
{19‑carboxyheptadecanoyl-γGlu-AEEA-AEEA}-CNTATCATQRLAEFLHHSSNNFGPILPPTNVGSNTY-NH2 (disulfide 1-6; reading uncertain; also: printed as N-alpha-[2-(2-{2-[2-(2-{2-[(S)-4-Carboxy-4-(19-carboxyheptadecanoylamino)butyrylamino]ethoxy}ethoxy)acetylamino]ethoxy}ethoxy)acetyl]-[des1,Glu14,His17]-pramlintide) | 0.334 | 0.672
{C18 diacid-γGlu}-HHHCNTATCATQRLAEFLHHSSNNFGPILPPTNVGSNTY-NH2 (disulfide 4-9; SMILES CC[C@H](C)[C@H](NC(=O)[C@@H]1CCCN1C(=O)CNC(=O)[C@H](Cc1ccccc1)NC(=O)[C@H](CC(N)=O)NC(=O)[C@H](CC(N)=O)NC(=O)[C@H](CO)NC(=O)[C@H](CO)NC(=O)[C@H](Cc1c[nH]cn1)NC(=O)[C@H](Cc1c[nH]cn1)NC(=O)[C@H](CC(C)C)NC(=O)[C@H](Cc1ccccc1)NC(=O)[C@H](CCC(=O)O)NC(=O)[C@H](C)NC(=O)[C@H](CC(C)C)NC(=O)[C@H](CCCNC(=N)N)NC(=O)[C@H](CCC(N)=O)NC(=O)[C@@H](NC(=O)[C@H](C)NC(=O)[C@@H]1CSSC[C@H](NC(=O)[C@H](Cc2c[nH]cn2)NC(=O)[C@H](Cc2c[nH]cn2)NC(=O)[C@H](Cc2c[nH]cn2)NC(=O)CC[C@H](NC(=O)CCCCCCCCCCCCCCCCC(=O)O)C(=O)O)C(=O)N[C@@H](CC(N)=O)C(=O)N[C@@H]([C@@H](C)O)C(=O)N[C@@H](C)C(=O)N[C@@H]([C@@H](C)O)C(=O)N1)[C@@H](C)O)C(=O)N[C@@H](CC(C)C)C(=O)N1CCC[C@H]1C(=O)N1CCC[C@H]1C(=O)N[C@H](C(=O)N[C@@H](CC(N)=O)C(=O)N[C@H](C(=O)NCC(=O)N[C@@H](CO)C(=O)N[C@@H](CC(N)=O)C(=O)N[C@H](C(=O)N[C@@H](Cc1ccc(O)cc1)C(N)=O)[C@@H](C)O)C(C)C)[C@@H](C)O) | 0.0624 | 0.265

Other lines, results leading:

Amylin receptor human EC50 [1] [nM] | CTa receptor human EC50 [2] [nM] | Binder
0.248 | 0.439 | {C20 diacid-γGlu}-EHCNTATCATQRLAEFLHHSSNNFGPILPPTNVGSNTY-NH2 (disulfide 3-8; SMILES CC[C@H](C)[C@H](NC(=O)[C@@H]1CCCN1C(=O)CNC(=O)[C@H](Cc1ccccc1)NC(=O)[C@H](CC(N)=O)NC(=O)[C@H](CC(N)=O)NC(=O)[C@H](CO)NC(=O)[C@H](CO)NC(=O)[C@H](Cc1c[nH]cn1)NC(=O)[C@H](Cc1c[nH]cn1)NC(=O)[C@H](CC(C)C)NC(=O)[C@H](Cc1ccccc1)NC(=O)[C@H](CCC(=O)O)NC(=O)[C@H](C)NC(=O)[C@H](CC(C)C)NC(=O)[C@H](CCCNC(=N)N)NC(=O)[C@H](CCC(N)=O)NC(=O)[C@@H](NC(=O)[C@H](C)NC(=O)[C@@H]1CSSC[C@H](NC(=O)[C@H](Cc2c[nH]cn2)NC(=O)[C@H](CCC(=O)O)NC(=O)CC[C@H](NC(=O)CCCCCCCCCCCCCCCCCCC(=O)O)C(=O)O)C(=O)N[C@@H](CC(N)=O)C(=O)N[C@@H]([C@@H](C)O)C(=O)N[C@@H](C)C(=O)N[C@@H]([C@@H](C)O)C(=O)N1)[C@@H](C)O)C(=O)N[C@@H](CC(C)C)C(=O)N1CCC[C@H]1C(=O)N1CCC[C@H]1C(=O)N[C@H](C(=O)N[C@@H](CC(N)=O)C(=O)N[C@H](C(=O)NCC(=O)N[C@@H](CO)C(=O)N[C@@H](CC(N)=O)C(=O)N[C@H](C(=O)N[C@@H](Cc1ccc(O)cc1)C(N)=O)[C@@H](C)O)C(C)C)[C@@H](C)O) [N-alpha-[(S)-4-Carboxy-4-(19-carboxynonadecanoylamino)butyryl]-Glu-[His1,Glu14,His17]-pramlintide]
0.402 | 0.798 | {C20 diacid-γGlu}-EEKCNTATCATQRLAEFLHHSSNNFGPILPPTNVGSNTY-NH2 (disulfide 4-9; SMILES CC[C@H](C)[C@H](NC(=O)[C@@H]1CCCN1C(=O)CNC(=O)[C@H](Cc1ccccc1)NC(=O)[C@H](CC(N)=O)NC(=O)[C@H](CC(N)=O)NC(=O)[C@H](CO)NC(=O)[C@H](CO)NC(=O)[C@H](Cc1c[nH]cn1)NC(=O)[C@H](Cc1c[nH]cn1)NC(=O)[C@H](CC(C)C)NC(=O)[C@H](Cc1ccccc1)NC(=O)[C@H](CCC(=O)O)NC(=O)[C@H](C)NC(=O)[C@H](CC(C)C)NC(=O)[C@H](CCCNC(=N)N)NC(=O)[C@H](CCC(N)=O)NC(=O)[C@@H](NC(=O)[C@H](C)NC(=O)[C@@H]1CSSC[C@H](NC(=O)[C@H](CCCCN)NC(=O)[C@H](CCC(=O)O)NC(=O)[C@H](CCC(=O)O)NC(=O)CC[C@H](NC(=O)CCCCCCCCCCCCCCCCCCC(=O)O)C(=O)O)C(=O)N[C@@H](CC(N)=O)C(=O)N[C@@H]([C@@H](C)O)C(=O)N[C@@H](C)C(=O)N[C@@H]([C@@H](C)O)C(=O)N1)[C@@H](C)O)C(=O)N[C@@H](CC(C)C)C(=O)N1CCC[C@H]1C(=O)N1CCC[C@H]1C(=O)N[C@H](C(=O)N[C@@H](CC(N)=O)C(=O)N[C@H](C(=O)NCC(=O)N[C@@H](CO)C(=O)N[C@@H](CC(N)=O)C(=O)N[C@H](C(=O)N[C@@H](Cc1ccc(O)cc1)C(N)=O)[C@@H](C)O)C(C)C)[C@@H](C)O) [N-alpha-[(S)-4-Carboxy-4-(19-carboxynonadecanoylamino)butyryl]-Glu-Glu-[Glu14,His17]-pramlintide]
0.167 | 0.191 | {C20 diacid-γGlu}-HHHCNTATCATQRLAEFLHHSSNNFGPILPHTNVGSNTY-NH2 (disulfide 4-9; SMILES CC[C@H](C)[C@H](NC(=O)[C@@H]1CCCN1C(=O)CNC(=O)[C@H](Cc1ccccc1)NC(=O)[C@H](CC(N)=O)NC(=O)[C@H](CC(N)=O)NC(=O)[C@H](CO)NC(=O)[C@H](CO)NC(=O)[C@H](Cc1c[nH]cn1)NC(=O)[C@H](Cc1c[nH]cn1)NC(=O)[C@H](CC(C)C)NC(=O)[C@H](Cc1ccccc1)NC(=O)[C@H](CCC(=O)O)NC(=O)[C@H](C)NC(=O)[C@H](CC(C)C)NC(=O)[C@H](CCCNC(=N)N)NC(=O)[C@H](CCC(N)=O)NC(=O)[C@@H](NC(=O)[C@H](C)NC(=O)[C@@H]1CSSC[C@H](NC(=O)[C@H](Cc2c[nH]cn2)NC(=O)[C@H](Cc2c[nH]cn2)NC(=O)[C@H](Cc2c[nH]cn2)NC(=O)CC[C@H](NC(=O)CCCCCCCCCCCCCCCCCCC(=O)O)C(=O)O)C(=O)N[C@@H](CC(N)=O)C(=O)N[C@@H]([C@@H](C)O)C(=O)N[C@@H](C)C(=O)N[C@@H]([C@@H](C)O)C(=O)N1)[C@@H](C)O)C(=O)N[C@@H](CC(C)C)C(=O)N1CCC[C@H]1C(=O)N[C@@H](Cc1c[nH]cn1)C(=O)N[C@H](C(=O)N[C@@H](CC(N)=O)C(=O)N[C@H](C(=O)NCC(=O)N[C@@H](CO)C(=O)N[C@@H](CC(N)=O)C(=O)N[C@H](C(=O)N[C@@H](Cc1ccc(O)cc1)C(N)=O)[C@@H](C)O)C(C)C)[C@@H](C)O)
